According to US7537764:

B1: SC04-374 (scFv)
scFv: QVTLKESGPTLVKPTQTLTLTCTFSGFSLSTSGVGVGWIRQPPGKALEWLAVIYWNDDKLYRPSLKSRLTITKDTSKNQVVLTMTKMDPVDTATYYCAHRHRYYDISGYYRLFSDAFDIWGQGTMVTVSSGTGGSGGTGSGTGGSTQSVVTQPPSVSGAPGQRVTISCTGSSSNIGAGYDVHWYQQLPGTAPKLLIYGNSNRPSGVPDRFSGSKSGTSASLAITGLQAEDEADYYCQSYDSSLSGSVFGGGTKLTVLG
B2: SC04-361 (scFv)
scFv: EVQLVQSGAEVKKPGESLKISCKASGFSFSTYWIGWVRQMPGKGLEWMGIIYPADSDTRYSPSFQGQVTISADKSISTAYLQWSSLKASDTAMYYCARLRGPYYDFWNGYRETHDAFNVWGQGTMVTVSSGTGGSGGTGSGTGGSTDVVMTQSPDSLAVSLGERATINCKSSQNILDNSDNKNFLAWYQQKPGQPPKLLIYWASARESGVPDRFSGSGSGTDFTLTISSLQAEDVALYYCQQYYNTPITFGQGTRLEIKR
B3: SC04-353 (scFv)
scFv: EVQLVQSGGGVVQPGRSLRLSCAASGFTFSNYAMHWVRQAPGKGLEWVAVISYDGGNKYYADSVKGRFTMSRDNSKNTLYLQMNSLRAEDTAVYYCARDFWSGYSMVDSYYYYMDVWGKGTTVTVSSGTGGSGGTGSGTGGSTETTLTQSPGTLSLSPGERATLSCRASQSVSNTFLAWYQQKPGQAPRLLIYGASSRATGIPDRFSGSGSGTDFTLTISRLEPEDFAAYYCQQYGSSLTFGPGTKVDIKR

Biological target: whole inactivated rabies virus (rabies virus)
Assay: phage ELISA on coated whole inactivated rabies virus

Row | Binder | OD 492 nm
1 | B1 | 0.056 OD
2 | B2 | 0.059 OD
3 | B3 | 0.057 OD
